From the Immune Epitope Database (IEDB)
Blank lines part the entries; values can stand above or below the sequence they belong to.

Legend:
HLA-A*02:01 = experiment: IEDB peptide-MHC binding, purified MHC/competitive/fluorescence; filed as Kd, often an IC50 or EC50 that approximates it; ≥ and ≤ were set here for values at or beyond the usual limits of such assays
HLA-A*02:03 = experiment: as above
HLA-A*02:11 = experiment: as above
HLA-A*02:12 = experiment: as above
HLA-A*02:16 = experiment: as above
HLA-A*02:19 = experiment: as above
HLA-A*03:01 = experiment: as above
HLA-A*29:02 = experiment: as above
HLA-A*68:02 = experiment: as above
HLA-B*15:01 [1] = experiment: as above
HLA-B*18:01 = experiment: as above
HLA-B*27:03 = experiment: as above
HLA-B*39:01 = experiment: as above
HLA-B*46:01 [2] = experiment: as above
HLA-B*51:01 = experiment: as above
HLA-B*57:01 = experiment: as above
HLA-A*01:01 = experiment: as above; conditions: source organism: Pseudomonas aeruginosa UCBPP-PA14
HLA-A*11:01 = experiment: as above; conditions: source organism: Pseudomonas aeruginosa UCBPP-PA14
HLA-A*24:02 = experiment: as above; conditions: source organism: Pseudomonas aeruginosa UCBPP-PA14
HLA-A*26:01 = experiment: as above
HLA-A*30:01 = experiment: as above; conditions: source organism: Pseudomonas aeruginosa UCBPP-PA14
HLA-A*31:01 = experiment: as above; conditions: source organism: Pseudomonas aeruginosa UCBPP-PA14
HLA-A*69:01 = experiment: as above
HLA-B*07:02 [3] = experiment: as above; conditions: source organism: Pseudomonas aeruginosa UCBPP-PA14
HLA-B*08:01 = experiment: as above; conditions: source organism: Pseudomonas aeruginosa UCBPP-PA14
HLA-B*27:05 = experiment: as above; conditions: source organism: Pseudomonas aeruginosa UCBPP-PA14
HLA-B*40:01 = experiment: as above; conditions: source organism: Pseudomonas aeruginosa UCBPP-PA14
HLA-B*58:01 = experiment: as above; conditions: source organism: Pseudomonas aeruginosa UCBPP-PA14
HLA-A*23:01 = experiment: as above
HLA-A*24:03 = experiment: as above
HLA-B*15:17 = experiment: as above; conditions: source organism: Cryptosporidium parvum Iowa II
HLA-B*07:02 [4] = experiment: IEDB peptide-MHC binding, purified MHC/direct/fluorescence; filed as Kd, often an IC50 or EC50 that approximates it; ≥ and ≤ were set here for values at or beyond the usual limits of such assays; conditions: source organism: Escherichia coli O157:H7 str. EC869
HLA-B*15:01 [5] = experiment: as above; conditions: source organism: Escherichia coli O157:H7
HLA-B*15:02 = experiment: as above; conditions: source organism: Escherichia coli O157:H7 str. EC869
HLA-B*35:01 = experiment: as above; conditions: source organism: Escherichia coli O157:H7 str. EC869
HLA-B*46:01 [6] = experiment: as above; conditions: source organism: Escherichia coli O157:H7
[7] = source organism: Giardia lamblia ATCC 50803
[8] = source organism: Pseudomonas aeruginosa UCBPP-PA14
[9] = source organism: Entamoeba dispar SAW760
[10] = source organism: Cryptosporidium parvum Iowa II

Sequence: ELLDHLLLF
- Kd (HLA-A*02:01; [7]): ≥ 20 µM
- Kd (HLA-A*02:03; [7]): ≥ 20 µM
- Kd (HLA-A*02:11; [7]): ≥ 20 µM
- Kd (HLA-A*02:12; [7]): ≥ 20 µM
- Kd (HLA-A*02:16; [7]): ≥ 20 µM
- Kd (HLA-A*02:19; [7]): 0.98 µM
- Kd (HLA-A*03:01; [7]): ≥ 20 µM
- Kd (HLA-A*29:02; [7]): 0.0161 µM
- Kd (HLA-A*68:02; [7]): ≥ 20 µM
- Kd (HLA-B*15:01 [1]; [7]): ≥ 20 µM
- Kd (HLA-B*18:01; [7]): ≥ 20 µM
- Kd (HLA-B*27:03; [7]): ≥ 20 µM
- Kd (HLA-B*39:01; [7]): ≥ 20 µM
- Kd (HLA-B*46:01 [2]; [7]): ≥ 20 µM
- Kd (HLA-B*51:01; [7]): ≥ 20 µM
- Kd (HLA-B*57:01; [7]): ≥ 20 µM

- Kd (HLA-A*01:01): ≥ 20 µM
- Kd (HLA-A*03:01; [8]): 0.291 µM
- Kd (HLA-A*11:01): 0.0306 µM
- Kd (HLA-A*24:02): ≥ 20 µM
- Kd (HLA-A*26:01; [8]): ≥ 20 µM
- Kd (HLA-A*30:01): ≥ 20 µM
- Kd (HLA-A*31:01): 1.26 µM
- Kd (HLA-A*69:01; [8]): ≥ 20 µM
- Kd (HLA-B*07:02 [3]): ≥ 20 µM
- Kd (HLA-B*08:01): ≥ 20 µM
- Kd (HLA-B*15:01 [1]; [8]): 0.11 µM
- Kd (HLA-B*27:05): ≥ 20 µM
- Kd (HLA-B*40:01): ≥ 20 µM
- Kd (HLA-B*58:01): 1.12 µM
Sequence: AVFDGCVVY

Sequence: KGFFRVFKK
- Kd (HLA-A*02:01; [9]): ≥ 20 µM
- Kd (HLA-A*02:03; [9]): ≥ 20 µM
- Kd (HLA-A*02:11; [9]): ≥ 20 µM
- Kd (HLA-A*02:12; [9]): ≥ 20 µM
- Kd (HLA-A*02:16; [9]): ≥ 20 µM
- Kd (HLA-A*02:19; [9]): ≥ 20 µM
- Kd (HLA-A*03:01; [9]): 0.0049 µM
- Kd (HLA-A*23:01; [9]): ≥ 20 µM
- Kd (HLA-A*24:03; [9]): ≥ 20 µM
- Kd (HLA-A*26:01; [9]): ≥ 20 µM
- Kd (HLA-A*29:02; [9]): 0.189 µM
- Kd (HLA-A*68:02; [9]): ≥ 20 µM
- Kd (HLA-A*69:01; [9]): ≥ 20 µM
- Kd (HLA-B*15:01 [1]; [9]): ≥ 20 µM
- Kd (HLA-B*18:01; [9]): ≥ 20 µM
- Kd (HLA-B*39:01; [9]): ≥ 20 µM
- Kd (HLA-B*46:01 [2]; [9]): ≥ 20 µM
- Kd (HLA-B*51:01; [9]): ≥ 20 µM
- Kd (HLA-B*57:01; [9]): ≥ 20 µM

Sequence: RLKHIFLIF
- Kd (HLA-A*02:01; [10]): ≥ 20 µM
- Kd (HLA-A*02:03; [10]): ≥ 20 µM
- Kd (HLA-A*02:11; [10]): ≥ 20 µM
- Kd (HLA-A*02:12; [10]): ≥ 20 µM
- Kd (HLA-A*02:16; [10]): ≥ 20 µM
- Kd (HLA-A*02:19; [10]): ≥ 20 µM
- Kd (HLA-A*03:01; [10]): ≥ 20 µM
- Kd (HLA-A*23:01; [10]): ≥ 20 µM
- Kd (HLA-A*24:03; [10]): ≥ 20 µM
- Kd (HLA-A*26:01; [10]): ≥ 20 µM
- Kd (HLA-A*29:02; [10]): ≥ 20 µM
- Kd (HLA-A*68:02; [10]): ≥ 20 µM
- Kd (HLA-A*69:01; [10]): ≥ 20 µM
- Kd (HLA-B*15:17): ≥ 20 µM
- Kd (HLA-B*18:01; [10]): ≥ 20 µM
- Kd (HLA-B*27:03; [10]): ≥ 20 µM
- Kd (HLA-B*39:01; [10]): ≥ 20 µM
- Kd (HLA-B*46:01 [2]; [10]): ≥ 20 µM
- Kd (HLA-B*51:01; [10]): ≥ 20 µM
- Kd (HLA-B*57:01; [10]): ≥ 20 µM

- Kd (HLA-B*07:02 [4]): 2.21 µM
- Kd (HLA-B*15:01 [5]): 0.107 µM
- Kd (HLA-B*15:02): 0.013 µM
- Kd (HLA-B*35:01): 0.01 µM
- Kd (HLA-B*46:01 [6]): ≥ 20 µM
Sequence: NIAAPYLPF
